Data from the supplement of paper PMC7877785.
± gives the uncertainty stated by the source.

Assay: self-splicing fitness, log relative to wild type (ln ratio); higher = more splicing; Tetrahymena group I intron in knt gene, E. coli kanamycin selection, DiMSum; sequences stand for … in CUCUCU…GGAGGGAAAAGUUAUCAGGCAUGCACCUGGUAGCUAGUCUUUAAACCAAUAGAUUGCAUCGGUUUAAAAGGCAAGACCGUCAAAUUGCGGGAAAGGGGUCAACAGCCGUUCAGUACCAAGUCUCAGGGGAAACUUUGAGAUGGCCUUGCAAAGGGUAUGGUAAUAAGCUGACGGACAUGGUCCUAACCACGCAGCCAAGUCCUAAGUCAACAGAUCUUCUGUUGAUAUGGAUGCAGUUCACAGACUAAAUGUCGGUCGGGGAAGAUGUAUUCUUCUCAUAAGAUAUAGUCGGACCUCUCCUUAAUGGGAGCUAGCGGAUGAAGUGAUGCAACACUGGAGCCGCUGGGAACUAAUUUGUAUGCGAAAGUAUAUUGAUUAGUUUUGGAGUACUCGUGGUCG
In short: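 Pooled colonies went to amplicon sequencing on an Illumina HiSeq 2500 after six replicate transformations. The plates were LB agar with 100 μg/mL carbenicillin, 50 μM IPTG and 0.2% rhamnose, with or without 25 μg/mL kanamycin, incubated overnight at 37°C or 30°C. The E. coli BL21(DE3) library had all eight P1ex-region intron nucleotides randomised, the intron placed in the knt kanamycin-resistance gene on pET-22b(+). DiMSum fitness is the error-weighted combination of replicate fold changes, kanamycin against none, normalised to wild type.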

Sequence	self-splicing fitness (ln) (30 °C)	self-splicing fitness (ln) (37 °C)
CUUCAGCAAUAUUACGGUGA	-3.2 ± 0.21	-2.67 ± 0.18
CCCUAGCAAUAUUACGACGC	-3.34 ± 0.32	-2.53 ± 0.39
UGGCAGCAAUAUUACGUUUC	-3.1 ± 0.14	-2.77 ± 0.26
AUGCAGCAAUAUUACGCUAA	-0.813 ± 0.13	-0.31 ± 0.12
GUACAGCAAUAUUACGACAU	-0.299 ± 0.012	0.127 ± 0.032
AUGGAGCAAUAUUACGGCCA	-1.49 ± 0.18	-0.494 ± 0.21
UAAAAGCAAUAUUACGGUCU	-1.83 ± 0.076	-0.678 ± 0.079
GAAAAGCAAUAUUACGGGAC	-1.06 ± 0.12	-2.06 ± 0.18
GGACAGCAAUAUUACGGCCU	-2.3 ± 0.13	-1.13 ± 0.12
GCCUAGCAAUAUUACGAGCA	-2.26 ± 0.33	-0.418 ± 0.17
ACAGAGCAAUAUUACGUCCA	-2.34 ± 0.2	-2.25 ± 0.26
GCUCAGCAAUAUUACGACGC	-0.319 ± 0.12	-0.102 ± 0.19
GUGUAGCAAUAUUACGCAGG		-2.3 ± 0.32
UGUAAGCAAUAUUACGAAUC	-1.82 ± 0.25	-2.33 ± 0.49
AAGAAGCAAUAUUACGUAAU	-1.89 ± 0.097	-1.2 ± 0.12
AUUAAGCAAUAUUACGAUUC	-1.89 ± 0.1	-0.797 ± 0.12
UCAUAGCAAUAUUACGAGCA	-0.736 ± 0.2	-1.11 ± 0.23
GCAAAGCAAUAUUACGAGGC	-3.55 ± 0.34	-2.77 ± 0.4
CCGCAGCAAUAUUACGAAUG	-1.2 ± 0.063	-0.305 ± 0.065
GUGGAGCAAUAUUACGUGGU	-2.9 ± 0.27	-2.51 ± 0.28
ACCAAGCAAUAUUACGGGGC	-3.74 ± 0.18	-2.1 ± 0.14
UGAGAGCAAUAUUACGAAAU	-2.66 ± 0.22	-1.75 ± 0.32
AGACAGCAAUAUUACGAGCG	-0.874 ± 0.071	-0.405 ± 0.081
UGCUAGCAAUAUUACGGUAU	-2.28 ± 0.1	-2.43 ± 0.14
GCCAAGCAAUAUUACGAUGA	-3.12 ± 0.19	-1.66 ± 0.12

Sequence	self-splicing fitness (ln) (30 °C)	self-splicing fitness (ln) (37 °C)
CCACAGCAAUAUUACGAUAG	-1.17 ± 0.065	0.206 ± 0.084
CUAAAGCAAUAUUACGCAAG	-1.11 ± 0.089	-0.574 ± 0.12
UGGGAGCAAUAUUACGAGCA	-1.28 ± 0.18	-0.71 ± 0.18
UGUAAGCAAUAUUACGAUGC	-3.75 ± 0.27	-2.34 ± 0.28
CUCUAGCAAUAUUACGGGAU	-2.37 ± 0.11	-3.45 ± 0.16
AGCGAGCAAUAUUACGCGCA	-0.891 ± 0.23	-0.546 ± 0.2
CUCAAGCAAUAUUACGCACU	-3.2 ± 0.24	-2.08 ± 0.28
GGCCAGCAAUAUUACGUCUU	-0.247 ± 0.081	-0.523 ± 0.082
GGCCAGCAAUAUUACGGAGG	-2.39 ± 0.11	-1.14 ± 0.14
GGCGAGCAAUAUUACGCACA	-0.586 ± 0.082	-0.225 ± 0.12
UUCUAGCAAUAUUACGCUGG	-4.38 ± 0.46	
AGACAGCAAUAUUACGCAAC	-3.42 ± 0.22	-1.2 ± 0.14
UAGAAGCAAUAUUACGGUAU	-3.08 ± 0.2	-2.55 ± 0.17
AACCAGCAAUAUUACGGUAU	-2 ± 0.071	-0.457 ± 0.08
CCUCAGCAAUAUUACGAGUC	-3.88 ± 0.34	-2.27 ± 0.26
CUUCAGCAAUAUUACGACUA	-2.12 ± 0.39	
GACAAGCAAUAUUACGAGUA	-2.1 ± 0.12	-0.706 ± 0.098
GUUAAGCAAUAUUACGAGUG	-2.69 ± 0.14	-1.84 ± 0.16
AGUAAGCAAUAUUACGGUCA	-0.817 ± 0.074	0.0737 ± 0.081
GCCGAGCAAUAUUACGCAAG	-2.91 ± 0.44	-1.25 ± 0.36
AUAAAGCAAUAUUACGGUUC	-2.17 ± 0.088	-0.743 ± 0.1
GUAUAGCAAUAUUACGAAUC	-2.37 ± 0.22	-0.29 ± 0.17
UCACAGCAAUAUUACGAGUA	-2.02 ± 0.1	-1.52 ± 0.085
AGCCAGCAAUAUUACGUGUG	-3.01 ± 0.09	-1.61 ± 0.086
CAGUAGCAAUAUUACGCCCG	0.504 ± 0.12	-0.351 ± 0.15

Sequence	self-splicing fitness (ln) (30 °C)	self-splicing fitness (ln) (37 °C)
GGUUAGCAAUAUUACGUAUU	-1.14 ± 0.11	-0.191 ± 0.1
GUUAAGCAAUAUUACGCCAG	-3.1 ± 0.23	-2.75 ± 0.28
AGUAAGCAAUAUUACGGCUU	-0.592 ± 0.086	-0.0743 ± 0.11
CUUCAGCAAUAUUACGGCCU		-1.66 ± 0.38
CGUUAGCAAUAUUACGAUAA	-2.9 ± 0.26	-1.52 ± 0.22
CUUAAGCAAUAUUACGCUGC		-1 ± 0.35
CCGGAGCAAUAUUACGGCUG	-1.14 ± 0.15	-0.43 ± 0.18
UUAUAGCAAUAUUACGAACU	-2.51 ± 0.18	-0.944 ± 0.18
UCUUAGCAAUAUUACGUCAU	-1.86 ± 0.32	
UGCAAGCAAUAUUACGGGCC	-1.31 ± 0.12	-1.26 ± 0.14
CAAUAGCAAUAUUACGCGUG	-1.93 ± 0.092	-1.44 ± 0.095
CUGUAGCAAUAUUACGCACA	-2.05 ± 0.13	-1.19 ± 0.16
AGCCAGCAAUAUUACGGACU	-1.93 ± 0.088	-0.917 ± 0.096
UUUUAGCAAUAUUACGGGUG	-1.65 ± 0.11	-0.739 ± 0.14
GUGCAGCAAUAUUACGGAGC	-1.85 ± 0.2	-1.97 ± 0.19
UAGAAGCAAUAUUACGCUUC	-2.27 ± 0.18	-2.81 ± 0.22
CUAGAGCAAUAUUACGCUAC	-2.83 ± 0.27	
GACUAGCAAUAUUACGCGAU	-2.8 ± 0.21	-2.42 ± 0.3
CGUAAGCAAUAUUACGGGCG	-2.87 ± 0.22	-1.12 ± 0.14
AAUUAGCAAUAUUACGAUUU	-0.494 ± 0.11	-0.268 ± 0.13
AAGCAGCAAUAUUACGACAC	-1.25 ± 0.058	-0.831 ± 0.073
UUCUAGCAAUAUUACGUUAA	-2.15 ± 0.23	-1.32 ± 0.18
CUAGAGCAAUAUUACGGGGA	-2.35 ± 0.22	-3.06 ± 0.47
GCGCAGCAAUAUUACGCUAG	-3.26 ± 0.28	-2.15 ± 0.33
UGCUAGCAAUAUUACGCACG	-1.27 ± 0.12	-1.18 ± 0.16

Sequence	self-splicing fitness (ln) (30 °C)	self-splicing fitness (ln) (37 °C)
AUUUAGCAAUAUUACGCCGU	-1.2 ± 0.2	-1.44 ± 0.22
UGAAAGCAAUAUUACGGAUA	-1.56 ± 0.13	-1.1 ± 0.14
CUAGAGCAAUAUUACGCCGC	-2.52 ± 0.37	
GACCAGCAAUAUUACGAUGG	-3.69 ± 0.19	-2.82 ± 0.21
AAUUAGCAAUAUUACGUGGG	-3.58 ± 0.24	-3.64 ± 0.3
ACGAAGCAAUAUUACGGCUA	0.0742 ± 0.099	0.022 ± 0.11
GUGAAGCAAUAUUACGCGAC	-0.927 ± 0.21	-0.922 ± 0.26
GCCUAGCAAUAUUACGGAAC	-0.183 ± 0.091	0.0968 ± 0.16
UGACAGCAAUAUUACGAAUG	-0.535 ± 0.086	-0.604 ± 0.1
UUUAAGCAAUAUUACGUGAC	-3.33 ± 0.21	-2.11 ± 0.21
CCUUAGCAAUAUUACGCUGU	-3.42 ± 0.2	-2.49 ± 0.19
UCUGAGCAAUAUUACGCUUA	-2.24 ± 0.26	-2.38 ± 0.45
GGCUAGCAAUAUUACGCACA	-0.263 ± 0.12	0.1 ± 0.16
CACGAGCAAUAUUACGUCUU	-2.89 ± 0.22	-2.82 ± 0.24
GCCCAGCAAUAUUACGAGUU	-1.13 ± 0.048	-0.432 ± 0.066
GCCCAGCAAUAUUACGAUAG	-2.76 ± 0.14	-3.33 ± 0.2
GAGAAGCAAUAUUACGUCAG	-3.34 ± 0.23	-1.35 ± 0.18
AAGAAGCAAUAUUACGGCCG	-1.47 ± 0.12	-0.0374 ± 0.15
GAUAAGCAAUAUUACGUCCG	-4.76 ± 0.36	-2.1 ± 0.22
GCCCAGCAAUAUUACGCUUC	-1.18 ± 0.089	-1.33 ± 0.091
UCUUAGCAAUAUUACGCAUU	-4.23 ± 0.19	-2.47 ± 0.16
UAGAAGCAAUAUUACGUCGC	-3.7 ± 0.38	-2.21 ± 0.32
